Kd data for one substance are collected here from publication PMC3920732.

Several values for one entry are separate records, joined by “and”; a condition that tells them apart may be missing. Equal values may be shown once.

This experiment addresses α7/5HT3A chimaeric receptor (control, non-mutant). Nature of the experiment: radioligand binding.

What is called Kd is a measure of binding affinity in units of concentration. In the case of “125I-labelled α-bungarotoxin (from UniProt P60615 22-95) (natural protein)”, the Kd was 11.5 nM and 12.2 nM and 8.1 nM.
